Experiments:
[1] = molecular target: lytic transglycosylase MltB of Escherichia coli (Escherichia coli, UniProt P41052); test: MltB binding by intrinsic tryptophan/tyrosine fluorescence; conditions: excitation 280 nm
[2] = tested on: CC(=O)N[C@H]1[C@H](O[C@H]2[C@H](O[C@H](C)C(=O)N[C@@H](C)C(=O)N[C@H](CCC(=O)N[C@@H](CCC[C@@H](N)C(=O)O)C(=O)N[C@H](C)C(=O)N[C@H](C)C(=O)O)C(=O)O)[C@@H](NC(C)=O)[C@@H]3OC[C@H]2O3)O[C@H](CO)[C@@H](O)[C@@H]1O; test: Turnover of synthetic substrates by NagZ; format: biochemical, Pseudomonas aeruginosa; conditions: other: substrate hydrolysis by NagZ
[3] = tested on: CO[C@@H]1O[C@H](CO)[C@@H](O[C@@H]2O[C@H](CO)[C@@H](O)[C@H](O)[C@H]2NC(C)=O)[C@H](O[C@H](C)C(=O)N[C@@H](C)C(=O)N[C@H](CCC(=O)N[C@@H](CCC[C@@H](N)C(=O)O)C(=O)N[C@H](C)C(=O)N[C@H](C)C(=O)O)C(=O)O)[C@H]1NC(C)=O; test: Turnover of synthetic substrates by NagZ; format: biochemical, Pseudomonas aeruginosa; conditions: other: substrate hydrolysis by NagZ

Sequence of lytic transglycosylase MltB of Escherichia coli (P41052 19-361): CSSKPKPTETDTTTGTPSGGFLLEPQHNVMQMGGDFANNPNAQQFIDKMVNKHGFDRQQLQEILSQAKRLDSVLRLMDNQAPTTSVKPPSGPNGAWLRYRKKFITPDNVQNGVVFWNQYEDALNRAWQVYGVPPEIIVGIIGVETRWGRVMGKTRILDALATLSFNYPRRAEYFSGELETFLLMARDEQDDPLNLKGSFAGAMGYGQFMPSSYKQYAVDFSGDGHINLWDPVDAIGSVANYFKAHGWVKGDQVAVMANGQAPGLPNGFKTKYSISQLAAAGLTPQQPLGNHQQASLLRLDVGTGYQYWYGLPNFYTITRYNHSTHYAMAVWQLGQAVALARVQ

Molecule | kns (non-saturable, presumably non-specific binding mode) [1] [µM⁻¹] | Km [2] [µM] | kcat [2] [s⁻¹] | kcat/Km [2] | Km [3] [µM] | kcat [3] [s⁻¹] | kcat/Km [3]
CC(=O)N[C@H]1CN[C@H](CO)[C@@H](O)[C@@H]1O.Cl [compound 3, 2-acetamido-1,2-dideoxynojirimycin] | 0.128 ± 0.004 | – | – | – | – | – | –
CC(=O)N[C@H]1CN[C@H](CO)[C@@H](O)[C@@H]1O[C@H](C)C(=O)O.Cl [compound 4] | 0.060 ± 0.006 | – | – | – | – | – | –
NagZ of P. aeruginosa (Pseudomonas aeruginosa PAO1) | – | 104 ± 2 | 6.6 ± 0.2 | 6.3 ± 0.2 × 10^4 M^−1s^−1 | 165 ± 36 | 0.77 ± 0.04 | (0.5 ± 0.1) × 10^4 M^−1s^−1
